# Measured values taken from publication PMC4359371, “Analysis of the crystal structure of an active MCM hexamer” (eLife, 2014).
# What was measured:
# [1] = target: the molecule itself; experiment: crystal structure; PfMCMAAA with Mg/ADP, hanging drop, 50 mM sodium cacodylate pH 6.0, 50 mM magnesium acetate, 30% MPD, 5% glycerol; space group P1, 16 monomers in the asymmetric unit; 3.80 Å
# [2] = target: the molecule itself; experiment: crystal structure; Sso-PfMCM with Mg/ADP, hanging drop, 100 mM HEPES pH 7.6, 350 mM MgCl2, 3% PEG 3350; space group P6_(3), hexamer on a crystallographic threefold axis; 2.70 Å
Protein,stoichiometry N [1],stoichiometry N [2]
"Pyrococcus furiosus MCM AAA+ ATPase domain, crystallized construct (aa 263-361/729-966) (domain or fragment, UniProt Q8U3I4 263-966, looked up, PfMCM AAA+ domain, Pyrococcus furiosus MCM, aa 263-361/729-966 (intein aa 362-728 genetically removed); amplified from P. furiosus genomic DNA (ATCC); numbers are database (intein-containing) numbers; A different construct (aa 252-361/729-1049) was used for the unwinding experiments and is not this molecule; also called PfMCMAAA; PfMCM-AAA; not shown: His6, N-terminal, cleaved; SUMO, N-terminal, …) PEEEQIIKELAKRKDIVDAIVDSIAPAIYGYKEVKKGIALALFGGVSRKLPDGTRLRGDIHVLLVGDPGVAKSQILRYVANLAPRAIYTSGKSSSAAGLTAAAVRDEFTGGWVLEAGALVLADGGYALIDELDKMSDRDRSVIHEALEQQTISISKAGITATLNARTTVIAAANPKQGRFNRMKNPFEQIDLPPTLLSRFDLIFVLIDEPDDKIDSEVARHILRVRRGESEVVAPKIPHEILRKYIAYARKNIHPVISEEAMEEIEKYYVRMRKSVKKTKGEEEGIPPIPITARQLEALIRLSEAHARMRLSPIVTREDAREAIKLMEYTLKQIAMD",16,–
"Sso-PfMCM chimera (Sulfolobus solfataricus MCM N-terminal domain fused to Pyrococcus furiosus MCM AAA+ ATPase domain) (enzyme, UniProt Q9UXG1 1-269, looked up, SsoMCM N-terminal domain (SsoMCMN), Sulfolobus solfataricus MCM, aa 1-269; amplified from S. solfataricus genomic DNA (ATCC); PfMCM AAA+ domain (PfMCMAAA), Pyrococcus furiosus MCM, aa 257-361/729-966 = aa 257-966 with its intein (aa 362-728) genetically removed; lacks the C-terminal helix-turn-helix domain (aa 967-1049); numbers are database (intein-containing) numbers; Crystallised with Mg/ADP; …) MEIPSKQIDYRDVFIEFLTTFKGNNNQNKYIERINELVAYRKKSLIIEFSDVLSFNENLAYEIINNTKIILPILEGALYDHILQLDPTYQRDIEKVHVRIVGIPRVIELRKIRSTDIGKLITIDGILVKVTPVKERIYKATYKHIHPDCMQEFEWPEDEEMPEVLEMPTICPKCGKPGQFRLIPEKTKLIDWQKAVIQERPEEVPSGQLPRQLEIILEDDLVDSARPGDRVKVTGILDIKQDSPVKRGSRAVFDIYMKVSSIEVSQKVLQELEISPEEEQIIKELAKRKDIVDAIVDSIAPAIYGYKEVKKGIALALFGGVSRKLPDGTRLRGDIHVLLVGDPGVAKSQILRYVANLAPRAIYTSGKSSSAAGLTAAAVRDEFTGGWVLEAGALVLADGGYALIDELDKMSDRDRSVIHEALEQQTISISKAGITATLNARTTVIAAANPKQGRFNRMKNPFEQIDLPPTLLSRFDLIFVLIDEPDDKIDSEVARHILRVRRGESEVVAPKIPHEILRKYIAYARKNIHPVISEEAMEEIEKYYVRMRKSVKKTKGEEEGIPPIPITARQLEALIRLSEAHARMRLSPIVTREDAREAIKLMEYTLKQIAMD",–,6
